Test results published in the supplement of paper PMC9732359.
± gives the uncertainty stated by the source.

Test: protein stability index of a GFP-peptide fusion (yeast GPS) (PSI 1-4); higher = more stable; sorted into four equal gates, so the index is relative within each strain
How it was run: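 Tiled 17-residue peptides from yeast proteins were fused downstream of GFP on a plasmid that also expresses Cherry, and the pooled library was carried in yeast. Mid-log cultures grown in leucine-free medium were sorted into four equal gates by GFP/Cherry fluorescence ratio. Plasmids from each gate were PCR-amplified and Illumina-sequenced, and reads were assigned to strains by barcodes. Each peptide's protein stability index is the sum, over gates, of the gate's read frequency multiplied by its gate number.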

Row | Sequence | protein stability index (doa10∆) | protein stability index (pdr5∆) | protein stability index (san1∆) | protein stability index (ubr1∆)
1 | QKRIENGGNSVITLAEY [SRP68] | 2.47 ± 0.076 | 2.89 ± 0.081 | 2.9 ± 0.069 | 3.22 ± 0.1
2 | NSSTSSTSNTPSPPNVI [YDL088C/ASM4] | 2.88 ± 0.05 | 2.88 ± 0.045 | 2.7 ± 0.052 | 3.06 ± 0.043
3 | SDDQQEAVELVIGLDSE [YML103C/NUP188] | 2.9 ± 0.17 | 3.54 ± 0.12 | 3.39 ± 0.12 | 3.38 ± 0.045
4 | HIGHSALKGPVRDKLDE [DPB4] | 3.29 ± 0.085 | 3.18 ± 0.068 | 3.11 ± 0.084 | 3.2 ± 0.083
5 | MKYTQYPNSSKLKRNSD [LIN1] | 3.17 ± 0.089 | 3.03 ± 0.079 | 2.99 ± 0.05 | 3.14 ± 0.094
6 | KAKSVVNDVEELGEIID [RMP1] | 3.4 ± 0.14 | – | 2.8 ± 0.26 | –
7 | GENIDADNDGPRINNIS [SNF2] | 3.44 ± 0.09 | 3.53 ± 0.11 | 3.28 ± 0.065 | 3.02 ± 0.09
8 | EIDDFNDIDDLDMELAE [SEC65] | 2.68 ± 0.1 | 3.11 ± 0.11 | 2.89 ± 0.089 | 3.22 ± 0.12
9 | MNAILTDVKLTLPQPRL [SMD1] | 2.98 ± 0.079 | 2.96 ± 0.097 | 2.65 ± 0.079 | 3.11 ± 0.076
10 | AKKTSTSTDGKKRSKAR [HTB1] | 3.2 ± 0.25 | 3.12 ± 0.17 | – | –
11 | IFQAKRNSNPENTVGLI [RPN10] | 3.17 ± 0.1 | 3.27 ± 0.087 | 2.92 ± 0.074 | 3.21 ± 0.11
12 | LESYKTQAKKLYHHTTK [SRP72] | 2.29 ± 0.068 | 2.73 ± 0.096 | 2.02 ± 0.13 | 2.66 ± 0.06
13 | EESINEFKSIEIEMKNK [SMC4] | 3.32 ± 0.21 | 3.56 ± 0.17 | 3.31 ± 0.25 | 2.86 ± 0.097
14 | TYQTERFTKFSDTLKEF [YDL116W/NUP84] | 2.38 ± 0.047 | 2.31 ± 0.056 | 1.73 ± 0.12 | 1.97 ± 0.046
15 | FELCSLGDKELWPVAIG [YJR042W/NUP85] | – | – | – | 2.49 ± 0.28
16 | RSKFLSTVAKFLARVIK [IRR1] | 3.04 ± 0.07 | 2 ± 0.07 | 2.24 ± 0.11 | 2.2 ± 0.047
17 | NHWRQNKGRAVYINPSG [BRR2] | 2.97 ± 0.12 | 2.78 ± 0.089 | 2.85 ± 0.074 | 3.16 ± 0.1
18 | QNTSNMNAGGLFGAKPQ [YGR119C/NUP57] | 2.08 ± 0.055 | 3.05 ± 0.063 | 3.34 ± 0.052 | 2.17 ± 0.076
19 | TAKETKMLMNLHKEQWQ [RPN11] | 3.28 ± 0.097 | 3.36 ± 0.082 | 3.5 ± 0.036 | 3.42 ± 0.068
20 | IDEDKLYPSFKPIYKDT [SSN2] | 2.99 ± 0.095 | 3.04 ± 0.11 | 3 ± 0.053 | 3.17 ± 0.092
21 | GDEGYNEDMVRRANFYK [SNF12] | 3.38 ± 0.14 | 3.36 ± 0.17 | 3.44 ± 0.076 | 3.45 ± 0.14
22 | IDKNHGFERLTVNEPQM [SRB7] | 3.03 ± 0.094 | 3.25 ± 0.075 | 3.23 ± 0.14 | 3.02 ± 0.052
23 | DAELMADEEEEIVDTYQ [ISW2] | 1.32 ± 0.15 | 1.3 ± 0.27 | – | 1.24 ± 0.25
24 | LLSLNSVRSLQKRIENG [SRP68] | 2.13 ± 0.069 | 1.65 ± 0.063 | 2.1 ± 0.091 | 2.25 ± 0.078
25 | FQHILRLLNTNVDGNIK [RPS18A] | 2.87 ± 0.05 | 2.95 ± 0.064 | 2.83 ± 0.045 | 2.59 ± 0.043
26 | PNRITLTDHRKETWLHE [SRB8] | 2.8 ± 0.082 | 3.03 ± 0.086 | 3.17 ± 0.07 | 3.22 ± 0.068

Row | Sequence | protein stability index (doa10∆) | protein stability index (pdr5∆) | protein stability index (san1∆) | protein stability index (ubr1∆)
27 | STGAADGGYNAQLAKAK [SMC2] | 3.31 ± 0.15 | 3.47 ± 0.11 | 3.22 ± 0.084 | 3.3 ± 0.13
28 | IHSKSMSVERGIRWELI [RPT1] | 3.06 ± 0.068 | 3 ± 0.073 | 2.88 ± 0.071 | 3.04 ± 0.063
29 | LVETCLNDLVESSFIEI [BRR2] | 3.03 ± 0.053 | 2.75 ± 0.063 | 2.69 ± 0.085 | 2.46 ± 0.054
30 | FNYVAVGDVSNLPYLDE [QCR2] | 3.2 ± 0.095 | 3.14 ± 0.11 | 2.98 ± 0.13 | 3.11 ± 0.06
31 | NIATQQNMQQSLQQMQH [GAL11] | 2.75 ± 0.076 | 2.92 ± 0.091 | 2.68 ± 0.17 | 2.86 ± 0.069
32 | QLYKRDPVSGAILVPMT [YJR042W/NUP85] | 1.95 ± 0.18 | 1.75 ± 0.24 | 2.6 ± 0.099 | 2.67 ± 0.13
33 | LVASAKGLQTVVVEEDA [RPL31A] | 2.48 ± 0.091 | 2.51 ± 0.1 | 2.54 ± 0.087 | 2.42 ± 0.085
34 | LKKGEQKTQELNAKYQS [ISW2] | 3.31 ± 0.063 | 3.22 ± 0.047 | 3.29 ± 0.039 | 3.29 ± 0.055
35 | TKAIQGCSKICDLSSKF [YCS4] | 3.15 ± 0.083 | 3.2 ± 0.069 | 3.37 ± 0.037 | 3.06 ± 0.098
36 | KRLLYTRRFVNVTLVNG [RPS30A] | 2.03 ± 0.051 | 1.44 ± 0.04 | 1.62 ± 0.099 | 1.91 ± 0.059
37 | QPVNINLDSSITQDGKF [YMR129W/POM152] | 2.92 ± 0.098 | 3.18 ± 0.084 | 3.07 ± 0.048 | 3.04 ± 0.059
38 | NVSIVANYIKERTKNAQ [SMC4] | 3.02 ± 0.12 | 3.14 ± 0.065 | 2.91 ± 0.05 | 3.18 ± 0.061
39 | SKNTAVSKVQKRKVLEL [SRP72] | 2.66 ± 0.11 | 2.1 ± 0.16 | – | –
40 | SHVNKYGLIRGLKFASF [PRP8] | 1.83 ± 0.067 | 1.85 ± 0.065 | 1.91 ± 0.089 | 1.34 ± 0.03
41 | VLTQLTALALKYLIKYN [CSI1] | 2.37 ± 0.11 | 2.75 ± 0.08 | 2.55 ± 0.11 | 2.47 ± 0.074
42 | IHQNAGRLLRAMFEICL [BRR2] | 1.85 ± 0.053 | 1.75 ± 0.054 | 2.21 ± 0.063 | 2.83 ± 0.048
43 | TKKKRKPTEVNDSENNS [ITC1] | 3.26 ± 0.063 | 3.21 ± 0.081 | 3.16 ± 0.045 | 3.27 ± 0.054
44 | LRELDVELIESKINELS [SMC4] | 3.37 ± 0.096 | 3.47 ± 0.077 | 3.38 ± 0.073 | 3.35 ± 0.047
45 | LSTSEDVSIEELLREWL [IRR1] | 3.25 ± 0.16 | 2.31 ± 0.21 | – | 1.53 ± 0.15
46 | ADDEKSDEEEVTEMSNN [BRR2] | 3 ± 0.06 | 3.02 ± 0.042 | 2.84 ± 0.054 | 3.1 ± 0.048
47 | PQNEKPPAYALLGSCQT [RPC25] | 2.83 ± 0.26 | 2.76 ± 0.17 | – | 2.45 ± 0.13
48 | KDMKLLRYYKNIWLNNK [NUT1] | 2.01 ± 0.065 | 1.65 ± 0.074 | 1.97 ± 0.15 | 1.28 ± 0.054
49 | WLAAATATGIKVFSLDP [ASC1] | 2.58 ± 0.049 | 2.69 ± 0.045 | 2.81 ± 0.036 | 2.43 ± 0.029
50 | GTENTERPPLLPILPIQ [YOR098C/NUP1] | 2.42 ± 0.17 | 3.08 ± 0.17 | – | –
51 | EPPGSNTSFSFTKPPAN [YOR098C/NUP1] | 3.12 ± 0.07 | 3.21 ± 0.057 | 3 ± 0.039 | 2.96 ± 0.053
52 | FDVNNIDMHLIYGVEWL [YDL116W/NUP84] | 2.12 ± 0.059 | 2.09 ± 0.049 | 1.92 ± 0.074 | 2.27 ± 0.044
